Biological target: CD137 ligand (CD137L) (human) (UniProt P41273)
Experiment: cell-based or functional assay

Chain of UniProt P41273 (P41273 whole entry): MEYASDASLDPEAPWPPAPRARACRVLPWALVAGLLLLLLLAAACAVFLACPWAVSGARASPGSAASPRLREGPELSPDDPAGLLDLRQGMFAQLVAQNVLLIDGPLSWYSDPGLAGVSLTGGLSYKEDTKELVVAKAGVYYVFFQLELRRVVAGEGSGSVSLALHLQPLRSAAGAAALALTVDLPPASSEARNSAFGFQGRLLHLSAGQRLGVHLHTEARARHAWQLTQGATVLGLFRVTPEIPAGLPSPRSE

For “RBC-CD137-Fc (biotinylated CD137-Fc conjugated through avidin to biotinylated red blood cells) (from UniProt Q07011 24-186) (Fc fusion)”, which IL-8 production by monocytes co-cultured for 5 days (ELISA) is on record?
Its IL-8 production by monocytes co-cultured for 5 days (ELISA) is 2 fold.
